Data reported in paper PMC9616490.

Legend:
Assay in all cases: cryo-EM structure
Settings in all cases: remark: other sources report otherwise
[1] = target: T1, human Na-K-2Cl cotransporter-1 (hNKCC1), full-length wild type (human), P55011
T1 chain: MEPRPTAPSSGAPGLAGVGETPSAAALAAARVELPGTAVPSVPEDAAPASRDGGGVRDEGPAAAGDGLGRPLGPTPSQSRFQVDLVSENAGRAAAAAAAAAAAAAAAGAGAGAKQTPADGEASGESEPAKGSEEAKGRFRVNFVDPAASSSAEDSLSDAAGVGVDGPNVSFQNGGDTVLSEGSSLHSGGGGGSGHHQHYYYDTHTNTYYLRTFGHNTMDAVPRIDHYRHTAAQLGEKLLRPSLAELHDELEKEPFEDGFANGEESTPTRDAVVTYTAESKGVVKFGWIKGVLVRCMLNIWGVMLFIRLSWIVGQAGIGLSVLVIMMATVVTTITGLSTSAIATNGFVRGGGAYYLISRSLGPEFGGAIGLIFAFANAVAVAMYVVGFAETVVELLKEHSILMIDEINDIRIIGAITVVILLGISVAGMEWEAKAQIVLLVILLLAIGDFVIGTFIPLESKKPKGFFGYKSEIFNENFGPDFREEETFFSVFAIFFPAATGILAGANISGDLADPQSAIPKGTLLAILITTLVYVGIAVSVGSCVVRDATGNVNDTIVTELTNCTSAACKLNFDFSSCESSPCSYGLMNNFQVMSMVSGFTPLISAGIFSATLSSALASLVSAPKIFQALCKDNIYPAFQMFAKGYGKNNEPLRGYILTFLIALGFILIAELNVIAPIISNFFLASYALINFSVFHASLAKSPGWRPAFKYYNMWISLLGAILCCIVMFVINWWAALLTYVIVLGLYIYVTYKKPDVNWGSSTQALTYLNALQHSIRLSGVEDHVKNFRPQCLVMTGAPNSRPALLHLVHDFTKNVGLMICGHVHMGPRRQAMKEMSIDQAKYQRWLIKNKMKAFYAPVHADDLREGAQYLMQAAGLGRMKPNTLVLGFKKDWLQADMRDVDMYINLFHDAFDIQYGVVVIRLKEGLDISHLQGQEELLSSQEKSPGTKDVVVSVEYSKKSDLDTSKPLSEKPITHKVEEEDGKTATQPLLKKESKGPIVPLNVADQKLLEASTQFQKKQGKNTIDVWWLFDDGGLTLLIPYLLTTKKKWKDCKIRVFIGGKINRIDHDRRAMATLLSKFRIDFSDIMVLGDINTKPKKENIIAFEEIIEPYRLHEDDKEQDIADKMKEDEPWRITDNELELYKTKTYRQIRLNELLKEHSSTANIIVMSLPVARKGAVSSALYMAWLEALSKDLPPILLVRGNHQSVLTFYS

[2] = target: T1, human Na-K-2Cl cotransporter-1 …
[3] = target: T1, human Na-K-2Cl cotransporter-1 …

Measured: stoichiometry N

B1: human Na-K-2Cl cotransporter-1 (hNKCC1), full-length wild type, P55011 1-1212 (natural protein)
chain: T1 chain
2: [1] | [2] | [3]
